Tests used:
[1] = substrate: Cc1cc(=O)oc2cc(NC(=O)[C@@H]3CCCN3C(=O)CN)ccc12; test: fluorescence of released MCA; Michaelis-Menten nonlinear fit; format: biochemical, Homo sapiens; details: […] substrate, […] sodium phosphate pH […] EDTA, […] Tween […] K, […] min
Excerpt: fluorescence of released MCA; Michaelis-Menten nonlinear fit on Human DPP IV

[2] = substrate: Cc1cc(=O)oc2cc(NC(=O)[C@@H]3CCCN3C(=O)CN)ccc12; test: as above; format: biochemical, Pseudoxanthomonas mexicana; details: […] substrate, […] sodium phosphate pH […] EDTA, […] Tween […] K, […] min
Excerpt: fluorescence of released MCA; Michaelis-Menten nonlinear fit on PmDAP IV

Protein | Km [1] [µM] | kcat [1] [s⁻¹] | kcat/Km [1] [M⁻¹ s⁻¹] | Km [2] [µM] | kcat [2] [s⁻¹] | kcat/Km [2] [M⁻¹ s⁻¹]
Human DPP IV (Homo sapiens) (protein, homodimer) SRKTYTLTDYLKNTYRLKLYSLRWISDHEYLYKQENNILVFNAEYGNSSVFLENSTFDEFGHSINDYSISPDGQFILLEYNYVKQWRHSYTASYDIYDLNKRQLITEERIPNNTQWVTWSPVGHKLAYVWNNDIYVKIEPNLPSYRITWTGKEDIIYNGITDWVYEEEVFSAYSALWWSPNGTFLAYAQFNDTEVPLIEYSFYSDESLQYPKTVRVPYPKAGAVNPTVKFFVVNTDSLSSVTNATSIQITAPASMLIGDHYLCDVTWATQERISLQWLRRIQNYSVMDICDYDESSGRWNCLVARQHIEMSTTGWVGRFRPSEPHFTLDGNSFYKIISNEEGYRHICYFQIDKKDCTFITKGTWEVIGIEALTSDYLYYISNEYKGMPGGRNLYKIQLSDYTKVTCLSCELNPERCQYYSVSFSKEAKYYQLRCSGPGLPLYTLHSSVNDKGLRVLEDNSALDKMLQNVQMPSKKLDFIILNETKFWYQMILPPHFDKSKKYPLLLDVYAGPCSQKADTVFRLNWATYLASTENIIVASFDGRGSGYQGDKIMHAINRRLGTFEVEDQIEAARQFSKMGFVDNKRIAIWGWSYGGYVTSMVLGSGSGVFKCGIAVAPVSRWEYYDSVYTERYMGLPTPEDNLDHYRNSTVMSRAENFKQVEYLLIHGTADDNVHFQQSAQISKALVDVGVDFQAMWYTDEDHGIASSTAHQHIYTHMSHFIKQCFSLP | 37.1 ± 1.6 | 35.3 ± 1 | 952000 ± 13000 |  |  | 
PmDAP IV (Pseudoxanthomonas mexicana) (protein, M12I lies in the removed signal; no tag; 723 residues, 82-kDa; homodimer; crystal model Ala22-Pro745) AEKLTLEAITGSAPLSGPTLTKPQIAPDGSRVTFLRGKDRDRNRLDLWEYDIASGQTRLLVDSSVVLPGEEVLSDEEKARRERQRIAALSGIVDYQWSPDGKALLFPLGGELYFYDLTKSGRDAVRKLTNGGGFATDPKISPKGGFVSFIRDRNLWAIDLASGKEVQLTRDGSDTIGNGVAEFVADEEMDRHTGYWWAPDDAAIAFARIDETPVPVQKRYEVYPDRTEVVEQRYPAAGDHNVRVQLGVIAPKTGARPRWIDLGKDPDIYLARVDWRDPQRLTFQRQSRDQKKIELIETTLTNGTQRTLVTETSTTWVPLHNDLRFLKDGRFLWSSERSGFEHLYVASEDGSTLTALTQGEWVVDSLLAIDEAAGLAYVSGTRDGATEAHVYAVPLSGGEPRRLTQAPGMHAATFARNASVFVDSWSSDTTLPQIELFKADGTKLATLLVNDVSDATHPYAKYRAAHQPTAYGTLTAADGTTPLHYSLIKPAGFDPKKQYPVVVFVYGGPAAQTVTRAWPGRSDSFFNQYLAQQGYVVFTLDNRGTPRRGAAFGGALYGKQGTVEVDDQLRGIEWLKSQAFVDPARIGVYGWSNGGYMTLMLLAKHDEAYACGVAGAPVTDWALYDTHYTERYMDLPKANEAGYREASVFTHVDGIGAGKLLLIHGMADDNVLFTNSTKLMSELQKRGTPFELMTYPGAKHGLRGSDLLHRYRLTEDFFARCLKP |  |  |  | 19.4 ± 0.8 | 19.2 ± 0.4 | 989000 ± 35000

Source: PMC5807507, “Crystal structures of a bacterial dipeptidyl peptidase IV reveal a novel substrate recognition mechanism distinct from that of mammalian orthologues” (Scientific Reports, 2018)
